# US20260226179A1 (MAB DESIGNS, published 2026)
# Changes are numbered by the printed parent chain. Values joined by “and” are separate entries in the source; they are usually repeats but may differ in a detail not shown here. Equal values may be shown once.
# T1: human soluble IL-6R (human, UniProt P08887 20-357)
# T1 sequence: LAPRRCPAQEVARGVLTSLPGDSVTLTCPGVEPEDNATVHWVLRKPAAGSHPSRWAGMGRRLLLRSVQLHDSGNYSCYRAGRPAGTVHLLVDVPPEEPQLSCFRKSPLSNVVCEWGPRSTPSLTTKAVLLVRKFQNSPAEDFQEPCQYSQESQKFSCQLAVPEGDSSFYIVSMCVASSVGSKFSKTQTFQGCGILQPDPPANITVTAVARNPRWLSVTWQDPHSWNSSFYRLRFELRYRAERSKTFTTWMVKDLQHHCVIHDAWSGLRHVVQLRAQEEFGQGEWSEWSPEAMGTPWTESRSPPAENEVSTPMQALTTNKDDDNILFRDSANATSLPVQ
# T2: human membrane-bound IL-6R subunit alpha (human, UniProt P08887 20-468)
# T2 sequence: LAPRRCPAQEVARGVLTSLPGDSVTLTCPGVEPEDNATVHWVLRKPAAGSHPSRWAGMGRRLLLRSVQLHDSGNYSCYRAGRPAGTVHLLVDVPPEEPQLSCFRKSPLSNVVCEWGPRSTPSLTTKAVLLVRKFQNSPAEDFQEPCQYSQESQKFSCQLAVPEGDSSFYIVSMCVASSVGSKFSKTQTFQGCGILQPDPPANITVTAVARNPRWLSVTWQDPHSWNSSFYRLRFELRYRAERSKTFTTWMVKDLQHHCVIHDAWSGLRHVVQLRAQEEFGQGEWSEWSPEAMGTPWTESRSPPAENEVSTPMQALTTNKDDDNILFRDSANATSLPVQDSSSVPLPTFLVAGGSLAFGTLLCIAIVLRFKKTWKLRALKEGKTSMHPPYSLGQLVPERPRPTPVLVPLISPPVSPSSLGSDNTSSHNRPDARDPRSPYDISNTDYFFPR
# T3: human soluble IL-6R (human, UniProt P08887 20-357, limits assumed)
# T3 sequence: T1 sequence
# B1: candidate anti-IL-6R Fab clone 09 (Fab, V domains shown)
# VH: EVQLVESGGDLVQPGGSLKLSCAASGFTFSNYGMSWVRQTPDKRLELVAAINSNGGSTYYPDSVKGRFTISRDNAKNTLYLQMSSLKSEDTAMYYCARDGNYVSDYWGQGTTLTVSS
# VL: DIVLTQSPASLAVSLGQRATISCRASESVDSYGNSFMHWYQQKPGQPPKLLIYLASNLESGVPARFSGSGSRTDFTLTIDPVEADDAATYYCQQNNEDPWTFGGGTKLEIK
# B2: candidate anti-IL-6R Fab clone 07 (Fab, V domains shown)
# VH: EVKLVESGGGLVQPGGSLKLSCAASGFTFSSYAMSWVRQTADKRLELVANINSNGGSTYYPDSVKGRFTISRDNAKNTLFLQMSSLKSEDTAMYYCAREGYYTMDYWGQGTSVTVSS
# VL: B1 VL with L15P, H38N, W100Y
# B3: candidate anti-IL-6R Fab clone 19 (Fab, V domains shown)
# VH: B2 VH with V5M, S31N, A33G, A41P, N50I, I51M, N54K, K65M, F80Y, E99D
# VL: B1 VL with E27K, Y32F, P47S, K49R, Y53F, W100Y
# B4: candidate anti-IL-6R Fab clone 12 (Fab, V domains shown)
# VH: B1 VH with Q3K, V5M, D10G, L47W, A50N, K76Q, A97T, Y102F
# VL: B1 VL with L15P, H38N, W100Y
# B5: candidate anti-IL-6R Fab clone 20 (Fab, V domains shown)
# VH: B1 VH with Q3K, V5M, D10G, A50I, M93I, Y102F
# VL: B1 VL with S35R, M37L, H38N, W100Y
# B6: anti-IL-6R Fab C20 (purified Fab fragment of C20) (Fab, V domains shown)
# VH: B1 VH with Q3K, V5M, D10G, A50I, M93I, Y102F
# VL: B1 VL with S35R, M37L, H38N, W100Y
# Molecular target: T1, human soluble IL-6R
# Assay: cell-based or functional assay
row,"Proliferation in % (Ba/F3_gp130 cells, IL-6 + sIL-6R = 100%; IL-6 trans signalling; 1% PE) [%]",Binder
1,69.8,B1
2,55.7,B2
3,53.3,B3
4,47.9,B4
5,36.6,B5

# Molecular target: T1, human soluble IL-6R
# Assay: cell-based or functional assay
# Remark: another data set of the same source
row,Classical:trans signalling ratio proliferation [ratio],Binder
1,1.3,B1
2,1.5,B2
3,1.4,B3
4,1.3,B4
5,2.2,B5

# Molecular target: T2, human membrane-bound IL-6R subunit alpha
# Assay: cell-based or functional assay
row,Residual STAT3 phosphorylation in HEK293_IL-6R (IL-6 + sIL-6R; combined classical and trans signalling; 1% PE) [%],Binder
1,83,B1
2,77,B2
3,72,B3
4,90,B4
5,97,B5

# Molecular target: T1, human soluble IL-6R
# Assay: cell-based or functional assay
# Remark: another data set of the same source
Classical:trans signalling ratio intracellular signalling [ratio],Residual STAT3 phosphorylation in HEK293 (IL-6 + sIL-6R; IL-6 trans signalling; 1% PE) [%],Binder
2.2,38,B1
2.8,28,B2
3,24,B3
2.1,42,B4
3,32,B5

# Molecular target: T3, human soluble IL-6R
# Assay: cell-based or functional assay
row,IC50 of inhibition of proliferation of Ba/F3_gp130 cells induced by 10 ng/ml IL-6 and 200 ng/ml sIL-6R,Binder
1,159 ng/ml and 3.2 nM,B6

# Molecular target: Hyper-IL-6 (recombinant fusion protein consisting of IL-6 and soluble IL-6R)
# Assay: cell-based or functional assay
row,IC50 of inhibition of proliferation of Ba/F3_gp130 cells induced by 28 ng/ml Hy-IL-6,Binder
1,98 ng/ml and 1.9 nM,B6

# Molecular target: T2, human membrane-bound IL-6R subunit alpha
# Assay: cell-based or functional assay
# Remark: another data set of the same source
row,"Proliferation in % (Ba/F3_gp130_IL-6R cells, IL-6 + sIL-6R = 100%; combined IL-6 classical and trans signalling; 1% PE) [%]",Binder
1,91.6,B1
2,86.1,B2
3,73.3,B3
4,61.6,B4
5,81.9,B5
